Experiments:
[1] = target: T1, native human MUC1 on tumour cell lines (human, UniProt P15941 24-1255); test: FACS on live ZR-75 cells
T1 construct: whole, on cells; also called native MUC1; ZR-75

[2] = target: T2, full-length human MUC1 on stably transfected cells (human, UniProt P15941 24-1255); test: FACS (iQue3) on HEK293-hMUC1 cells
T2 construct: also called HEK293/human MUC1; HEK293-hMUC1

[3] = target: T2, full-length human MUC1 on stably …; test: FACS on HEK293-MUC1 cells, anti-His detection
MUC1-SEA-mIgG2a = target: T3, MUC1-SEA-mIgG2a (human; mouse, UniProt P15941 1036-1155); test: SPR (Biacore 8K, 25 C), MUC1-SEA-mIgG2a captured by anti-mouse Fc, scFv analyte
T3 construct: also called huMUC1-SEA-mIgG2a; human MUC1-mFc; not shown: Fc domain of mouse IgG2a fused to the C-terminus of the SEA domain
T3 sequence: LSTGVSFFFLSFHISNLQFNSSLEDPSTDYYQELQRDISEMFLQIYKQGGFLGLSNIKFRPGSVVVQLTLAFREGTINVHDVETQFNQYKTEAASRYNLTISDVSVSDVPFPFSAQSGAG

T2 sequence (P15941 24-1255 limits assumed): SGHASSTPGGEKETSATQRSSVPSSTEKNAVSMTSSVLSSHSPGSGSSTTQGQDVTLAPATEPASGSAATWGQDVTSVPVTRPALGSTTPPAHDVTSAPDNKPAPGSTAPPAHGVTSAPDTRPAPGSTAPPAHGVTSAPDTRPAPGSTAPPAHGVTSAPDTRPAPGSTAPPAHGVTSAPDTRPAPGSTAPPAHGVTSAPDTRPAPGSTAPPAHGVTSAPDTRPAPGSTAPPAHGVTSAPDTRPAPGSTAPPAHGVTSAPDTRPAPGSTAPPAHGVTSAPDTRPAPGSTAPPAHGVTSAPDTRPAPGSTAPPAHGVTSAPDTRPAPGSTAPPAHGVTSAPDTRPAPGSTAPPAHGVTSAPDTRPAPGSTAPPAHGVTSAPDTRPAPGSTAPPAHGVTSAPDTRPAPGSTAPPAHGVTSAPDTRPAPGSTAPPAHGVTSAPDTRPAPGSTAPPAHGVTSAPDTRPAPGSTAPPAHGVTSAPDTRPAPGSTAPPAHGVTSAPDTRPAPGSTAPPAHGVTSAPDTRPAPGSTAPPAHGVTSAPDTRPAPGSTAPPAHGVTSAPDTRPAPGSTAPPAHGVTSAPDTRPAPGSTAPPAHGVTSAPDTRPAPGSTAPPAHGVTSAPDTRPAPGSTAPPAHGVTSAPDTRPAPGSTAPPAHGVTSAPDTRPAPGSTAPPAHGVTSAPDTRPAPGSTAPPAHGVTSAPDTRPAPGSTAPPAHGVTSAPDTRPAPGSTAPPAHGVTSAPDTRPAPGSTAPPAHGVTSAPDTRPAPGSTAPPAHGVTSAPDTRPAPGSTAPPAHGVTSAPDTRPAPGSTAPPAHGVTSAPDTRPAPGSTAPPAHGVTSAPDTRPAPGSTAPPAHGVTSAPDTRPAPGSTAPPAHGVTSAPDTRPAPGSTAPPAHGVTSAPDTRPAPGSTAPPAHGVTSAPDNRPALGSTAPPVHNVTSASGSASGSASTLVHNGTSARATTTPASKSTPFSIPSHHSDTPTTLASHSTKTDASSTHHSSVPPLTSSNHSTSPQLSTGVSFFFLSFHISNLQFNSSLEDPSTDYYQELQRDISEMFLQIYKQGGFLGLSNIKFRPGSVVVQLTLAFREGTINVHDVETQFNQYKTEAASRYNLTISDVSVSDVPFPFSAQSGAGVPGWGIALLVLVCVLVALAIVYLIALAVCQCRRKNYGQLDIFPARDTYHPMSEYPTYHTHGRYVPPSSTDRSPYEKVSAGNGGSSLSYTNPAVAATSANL
T1 sequence (P15941 24-1255): as the sequence (P15941 24-1255 limits assumed) above

B1: huBG219P-Bz0 (antibody, IgG1, V domains shown)
VH: EVQLLESGGGLVQPGGSLRLSCAASGFTFNDYIMSWVRQAPGKGLEWVATVSSGGDNTYYPDSVKGRFTISRDNSKNTLYLQMNSLRAEDTAVYYCTRYGGLGAMDYWGQGTLVTVSS
VL: DIQMTQSPSSLSASVGERVTITCRASGNIHNYLTWYQQKPGKSPKLLVYNAKTLADGVPSRFSGSGSGPDYTLTISSLQPEDFATYYCQHFWSVPYTFGQGTKLEIK
notes: human wild-type IgG1 / kappa
- EC50 [1]: 20.9 nM

B2: huBG138P-Hz1 (antibody, V domains shown)
VH: QVQLVQSGAEVKKPGASVKVSCKASGYTFTTYTMHWVRQAPGQRLEWMGYINPGSDYTHYNQKFKDRVTITADTSASTAYMELSSLRSEDTAVYYCARQGNYAAYYFDYWGQGTLVTVSS
VL: DIQMTQSPSSLSASVGDRVTITCRASGNIHNFLVWYQQKPGKVPKLLIYNAKTLTSGVPSRFSGSGSGTDYTLTISSLQPEDVATYYCQNFWNVPFTFGQGTKLEIK
notes: humanized; constant regions not restated (IgG1/Ckappa vector used for the first round)
- EC50 (read off the curve) [2]: ~5 nM

B3: huBG138P-Hz3 (antibody, V domains shown)
VH: QVQLVQSGAEVKKPGASVKVSCKASGYTFTTYTMHWVRQAPGQGLEWMGYINPGSDYTHYNQKFKDRVTITADKSASTAYMELSSLRSEDTAVYYCARQGNYAAYYFDYWGQGTLVTVSS
VL: DIQMTQSPSSLSASVGDRVTITCRASGNIHNFLVWYQQKPGKVPKLLIYNAKTLTSGVPSRFSGSGSGTDYTLTISSLQPEDVATYYCQNFWNVPFTFGQGTKLEIK
notes: humanized; constant regions not restated
- EC50 (read off the curve) [2]: ~5 nM

B4: huBG138P-Hz4 (antibody, V domains shown)
VH: QVQLVQSGAEVKKPGASVKVSCKASGYTFTTYTMHWVRQAPGQGLEWMGYINPGSDYTHYNQKFKDRVTITADKSASTAYMELSSLRSEDTAVYYCARQGNYAAYYFDYWGQGTLVTVSS
VL: DIQMTQSPSSLSASVGDRVTITCRASGNIHNFLVWYQQKPGKSPKLLIYNAKTLTSGVPSRFSGSGSGTQYTLTISSLQPEDVATYYCQNFWNVPFTFGQGTKLEIK
notes: as for B3
- EC50 (read off the curve) [2]: ~3 nM

B5: scFv3-20P (scFv)
scFv: QVQLVQSGAEVKKPGASVKVSCKASGYTFTNYWINWVRQAPGQGLEWMGEIDPSDAYTNNNQKFQGRVTMTVDTSTSTAYMELSSLRSEDTAVYYCARGRRTGFAYWGQGTLVTVSSGGGGSGGGGSGGGGSGGGGSDIQMTQSPSSLSASVGDRVTITCRASENIYSNLAWYQQKPGKAPKLLIYAATNLADGVPSRFSGSGSGTDYTLTISSLQPEDFATYYCQHFWGTPYTFGQGTKLEIKHHHHHH
notes: Humanized BG346P scFv; His tag from the stated format of the BG346P scFv constructs; also called BG346P-scFv3-20P
- EC50 [3]: 16.1 nM
- Kd (MUC1-SEA-mIgG2a): 67.1 nM
- koff (MUC1-SEA-mIgG2a): 0.0202 s⁻¹
- kon (MUC1-SEA-mIgG2a): 301000 M⁻¹ s⁻¹

— patent US20250382384A1 (BEONE MEDICINES I, published 2025)
